# Paper PMC10961335
# Molecular target: MGF505-4R fused to NanoLuciferase fragment N1 (pDEST-N2H-N1) (African swine fever virus, Georgia 2007/1 strain)
# Assay: split reporter (BiFC, NanoBiT)
substance,measurement,value
swine TRAF3 fused to NanoLuciferase fragment N2 (pDEST-N2H-N2) (natural protein),luminescence score (fold increase over N1-MGF505-4R with empty N2 vector),8.5 fold
